Laboratory results published in publication PMC6821365.

Legend:
Assay in all cases: ITC
[1] = molecular target: T1, yedK W68A (Escherichia coli (gene from BL21 …, UniProt P76318 2-222, W68A))
T1 sequence: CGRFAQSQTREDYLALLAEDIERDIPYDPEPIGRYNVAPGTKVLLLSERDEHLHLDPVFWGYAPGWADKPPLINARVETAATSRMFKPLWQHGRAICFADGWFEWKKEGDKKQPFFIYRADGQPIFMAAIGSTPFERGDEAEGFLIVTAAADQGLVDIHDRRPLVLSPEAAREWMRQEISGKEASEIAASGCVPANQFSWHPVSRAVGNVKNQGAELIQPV

[2] = molecular target: T2, yedK WT (Escherichia coli (gene from BL21 …, UniProt P76318 2-222))
T2 sequence: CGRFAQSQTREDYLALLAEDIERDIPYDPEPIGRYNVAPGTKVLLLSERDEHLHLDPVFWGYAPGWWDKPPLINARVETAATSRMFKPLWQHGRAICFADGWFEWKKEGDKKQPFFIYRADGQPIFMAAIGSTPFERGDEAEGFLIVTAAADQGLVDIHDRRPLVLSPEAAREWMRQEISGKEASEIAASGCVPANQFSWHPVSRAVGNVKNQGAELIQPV

[3] = molecular target: T3, yedK W67A (Escherichia coli (gene from BL21 …, UniProt P76318 2-222, W67A))
T3 sequence: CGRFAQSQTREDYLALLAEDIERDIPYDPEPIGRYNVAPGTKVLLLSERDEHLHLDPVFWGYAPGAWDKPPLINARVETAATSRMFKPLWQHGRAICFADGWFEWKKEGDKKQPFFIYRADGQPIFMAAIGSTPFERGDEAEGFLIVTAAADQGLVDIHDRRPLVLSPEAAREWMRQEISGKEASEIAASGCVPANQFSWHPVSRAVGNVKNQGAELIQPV

[4] = molecular target: T4, yedK T80A (Escherichia coli (gene from BL21 …, UniProt P76318 2-222, T80A))
T4 sequence: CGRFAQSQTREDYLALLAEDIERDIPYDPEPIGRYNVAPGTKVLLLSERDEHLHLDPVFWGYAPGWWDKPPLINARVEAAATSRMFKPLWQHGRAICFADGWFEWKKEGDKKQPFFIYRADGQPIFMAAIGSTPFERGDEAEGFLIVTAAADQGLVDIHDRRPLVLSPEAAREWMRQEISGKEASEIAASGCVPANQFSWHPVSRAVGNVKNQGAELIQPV

[5] = molecular target: T5, yedK P40G (Escherichia coli (gene from BL21 …, UniProt P76318 2-222, P40G))
T5 sequence: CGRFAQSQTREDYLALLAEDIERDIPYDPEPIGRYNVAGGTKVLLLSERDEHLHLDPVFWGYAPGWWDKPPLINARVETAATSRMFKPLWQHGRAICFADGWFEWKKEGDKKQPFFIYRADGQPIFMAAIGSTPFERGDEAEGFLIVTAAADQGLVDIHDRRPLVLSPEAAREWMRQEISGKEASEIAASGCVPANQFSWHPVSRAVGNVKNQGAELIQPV

[6] = molecular target: T6, yedK R162A (Escherichia coli (gene from BL21 …, UniProt P76318 2-222, R162A))
T6 sequence: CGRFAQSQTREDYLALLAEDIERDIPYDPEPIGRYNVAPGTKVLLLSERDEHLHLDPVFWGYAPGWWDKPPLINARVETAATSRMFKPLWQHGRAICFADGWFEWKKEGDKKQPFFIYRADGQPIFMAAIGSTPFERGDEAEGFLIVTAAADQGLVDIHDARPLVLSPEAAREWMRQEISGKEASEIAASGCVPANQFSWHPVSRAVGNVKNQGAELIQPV

[7] = molecular target: T7, yedK N75A (Escherichia coli (gene from BL21 …, UniProt P76318 2-222, N75A))
T7 sequence: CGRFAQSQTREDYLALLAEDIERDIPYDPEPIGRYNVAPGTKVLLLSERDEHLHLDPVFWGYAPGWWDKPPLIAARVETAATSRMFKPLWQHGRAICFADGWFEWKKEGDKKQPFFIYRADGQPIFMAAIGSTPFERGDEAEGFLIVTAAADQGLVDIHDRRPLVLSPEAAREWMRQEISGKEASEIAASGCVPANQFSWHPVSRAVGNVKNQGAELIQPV

[8] = molecular target: T8, yedK W106A (Escherichia coli (gene from BL21 …, UniProt P76318 2-222, W106A))
T8 sequence: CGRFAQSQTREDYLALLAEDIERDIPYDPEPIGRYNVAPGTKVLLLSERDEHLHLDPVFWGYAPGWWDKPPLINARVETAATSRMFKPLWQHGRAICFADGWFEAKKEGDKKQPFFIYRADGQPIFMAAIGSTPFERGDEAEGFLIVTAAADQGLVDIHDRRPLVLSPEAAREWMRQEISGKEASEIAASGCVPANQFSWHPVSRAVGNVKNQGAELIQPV

CGGTCGATTC (ssDNA) [ssDNA]
binding result [1]: no binding
Kd [2]: 2.2 µM
binding result [3]: no binding
Kd [4]: 12.6 µM
Kd [5]: 10.8 µM
binding result [6]: no binding
Kd [7]: 37.9 µM
Kd [8]: 18.7 µM
